Reference: patent US20150037324A1
pEC50: −log10 of the molar value.

How the values were obtained:
[1] = target: Recombinant human GPR49-Fc ectodomain (human); assay: direct ELISA on coated GPR49-Fc, about 0.1-250 nM, A450; table without unit, nM from the axis [nM] Ab; control whose curve in FIG. 9G is flat (see non_binding), so the fitted value lies outside the range tested and carries no meaning
[2] = target: human GPR49 (G-Protein-coupled Receptor 49) on cells (human) (UniProt O75473); assay: cell-based or functional assay
human GPR49 (G-Protein-coupled Receptor 49) on cells (human), sequence (O75473 22-907 limits assumed): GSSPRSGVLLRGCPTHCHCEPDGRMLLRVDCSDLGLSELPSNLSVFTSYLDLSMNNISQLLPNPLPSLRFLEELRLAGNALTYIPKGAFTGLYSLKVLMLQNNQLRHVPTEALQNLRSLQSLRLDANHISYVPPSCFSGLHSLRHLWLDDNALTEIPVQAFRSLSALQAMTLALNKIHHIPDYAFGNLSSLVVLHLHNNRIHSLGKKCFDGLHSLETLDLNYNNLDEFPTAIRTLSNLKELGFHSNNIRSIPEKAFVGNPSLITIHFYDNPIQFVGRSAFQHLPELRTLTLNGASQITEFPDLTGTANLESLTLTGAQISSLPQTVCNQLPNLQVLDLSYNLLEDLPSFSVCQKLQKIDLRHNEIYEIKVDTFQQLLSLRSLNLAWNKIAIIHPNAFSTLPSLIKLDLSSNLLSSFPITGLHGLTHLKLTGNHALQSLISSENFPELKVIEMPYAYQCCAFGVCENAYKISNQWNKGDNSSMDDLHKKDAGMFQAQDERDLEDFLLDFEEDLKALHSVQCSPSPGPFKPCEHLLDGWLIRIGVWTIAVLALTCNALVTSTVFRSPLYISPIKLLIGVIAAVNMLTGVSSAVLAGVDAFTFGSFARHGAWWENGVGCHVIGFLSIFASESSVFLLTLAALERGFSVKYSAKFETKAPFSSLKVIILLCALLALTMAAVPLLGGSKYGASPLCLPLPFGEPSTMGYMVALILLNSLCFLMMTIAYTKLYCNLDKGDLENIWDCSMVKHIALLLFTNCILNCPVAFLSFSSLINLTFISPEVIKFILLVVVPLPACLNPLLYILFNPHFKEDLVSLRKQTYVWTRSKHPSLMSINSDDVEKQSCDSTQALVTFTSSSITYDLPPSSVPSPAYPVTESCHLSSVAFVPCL

Recombinant human GPR49-Fc ectodomain (human), sequence (chain, as listed by the source limits assumed, form in doubt): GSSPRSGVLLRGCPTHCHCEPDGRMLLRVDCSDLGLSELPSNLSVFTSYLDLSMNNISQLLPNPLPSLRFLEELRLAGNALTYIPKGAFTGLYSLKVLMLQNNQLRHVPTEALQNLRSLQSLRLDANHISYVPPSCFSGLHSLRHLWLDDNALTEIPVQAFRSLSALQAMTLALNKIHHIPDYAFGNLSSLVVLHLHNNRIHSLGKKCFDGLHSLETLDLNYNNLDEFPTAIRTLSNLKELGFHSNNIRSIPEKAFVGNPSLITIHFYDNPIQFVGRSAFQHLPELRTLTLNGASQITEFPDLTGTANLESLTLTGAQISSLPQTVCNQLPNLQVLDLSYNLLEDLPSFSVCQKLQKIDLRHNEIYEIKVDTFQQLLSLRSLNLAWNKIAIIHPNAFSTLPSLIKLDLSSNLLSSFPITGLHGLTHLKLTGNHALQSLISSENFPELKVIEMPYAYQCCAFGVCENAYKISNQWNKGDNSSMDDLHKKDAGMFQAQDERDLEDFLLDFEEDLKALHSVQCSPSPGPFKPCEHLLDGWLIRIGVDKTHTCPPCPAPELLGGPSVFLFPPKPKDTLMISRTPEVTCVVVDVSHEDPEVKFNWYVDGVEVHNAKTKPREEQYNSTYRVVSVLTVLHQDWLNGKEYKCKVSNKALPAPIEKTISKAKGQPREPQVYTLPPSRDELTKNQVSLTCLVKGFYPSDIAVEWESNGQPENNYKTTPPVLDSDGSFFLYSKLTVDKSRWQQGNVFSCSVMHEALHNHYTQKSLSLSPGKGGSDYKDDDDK

pEC50 [1]	increase in proliferation, GPR49-3T3 clone 28 [2]	Substance
5.80	–	Ctrl (antibody)
–	4 fold	R-spondin-1 (ligand)
